The target in this assay is human 40S ribosomal subunit labelled with Cy3 on the N-terminus of uS19 (human) (UniProt P62841). The experiment in a line: FRET or BRET. A general note: In BRET a luciferase serves as donor, and the signal depends on an acceptor being close.

Broadly, the koff is a measure of how fast the partners let go of each other. A high value points to a short-lived complex.

In turn, “Bat-Hp-CoV Nsp1, fluorescently labelled (wild type) (natural protein)” showed a fold inhibition of eIF1A association with the 40S subunit of over 2 fold, a koff of under 0.01 s⁻¹ and a persistence of the FRET signal of over 100 s.
